Consider 4 molecules from patent US20100055034A1 (DOMPE PHA MA S P A, published 2010).

Assay [1] addresses T1, recombinant soluble human alpha folate receptor with His6 purification tag (human, UniProt P15328 25-232).
T1 construct: Expressed in CHO-K1 cells and purified from the supernatant; also called soluble alpha FR; recombinant FR
Briefly: SPR (BIAcore), recombinant FR amine-coupled to CM5 chip, Fab monomer 3.125-200 nM in flow. As for the experimental part: (§1) FIG. 3 (BIAcore binding): Determination of antibody fragments binding parameters on alpha folate receptor. For this several concentrations of Fab monomer (from 3 to 200 nM) were flowed in the sensorchip cell previously coated with the recombinant receptor and binding was registered for 30 minutes. After this time period washing was monitored for another twenty minutes.
(§2) The target protein was coated on […] BIAcore sensorchip and several concentrations of both antibody fragments were used to determine the binding kinetics. In particular, recombinant FR was covalently bound to a CM5 sensor chip using the amine coupling kit (Pharmacia) with an antigen concentration of 0.6 μg/ml in 10 mM sodium acetate, pH 4.8 yielding a surface of 280 RU. Residual activated groups were blocked by injection of […] ethanolamine (1.0 M pH 8.5). […] Evaluation was performed for at least 30 minutes. Subsequently, detachment of residual antibody bound to the sensor chip was performed with 100 mM Glycine Buffer pH 2.7.

The target in assay [2] is T1, recombinant soluble human alpha folate …. Kind of assay: SPR (BIAcore), KD of AFRA Fab against KD of C4 Fab. As for the experimental part:
as §1, §2
In general terms: In SPR one partner is held on a chip, and binding of the other changes the refractive index at the surface.

The target of assay [3] is T2, human folate receptor alpha as expressed on cells (human, UniProt P15328 25-234).
T2 construct: GPI-anchored on the cell surface; Natural expression on OVCAR3 and IGROV1 ovarian carcinoma cells, transfected into A431 cells (A431-FR); also called alpha FR; FR-alpha
T2 sequence (P15328 25-234): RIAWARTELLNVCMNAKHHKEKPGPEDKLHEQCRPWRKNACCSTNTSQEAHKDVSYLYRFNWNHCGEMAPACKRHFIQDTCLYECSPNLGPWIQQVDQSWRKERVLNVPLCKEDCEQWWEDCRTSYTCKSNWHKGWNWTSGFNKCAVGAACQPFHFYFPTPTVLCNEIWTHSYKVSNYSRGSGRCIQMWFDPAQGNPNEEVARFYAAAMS
Kind of assay: cell ELISA on fixed IGROV1 cells, F(ab')2; KD = concentration at half of plateau signal. On the procedure:
(§3) 4×10⁴ cells (human ovarian carcinoma cell lines OVCAR3 (ATCC) and IGROVI (a gift from Dr J. Bénard, Institut Gustave Roussy, Villejuif, France), and A431-FR⁽¹⁷⁾ cells which are human epidermoid carcinoma cells transfected with folate receptor alpha,) were seeded in each well of a 96 wells format plate, and grown until a confluent monolayer was obtained. Cells were fixed, for 5 minutes, at room temperature with 0.1% glutaraldehyde in PBS. Plates were washed twice with PBS, then once (5 minutes) with 0.1M glycine in PBS+0.02% NaN₃, successively five times with PBS and finely with PBS containing 1% BSA and 0.02% NaN₃.
(§4) An anti-human IgG (Fab specific, Sigma) peroxidase conjugated diluted 1:1000 in PBS+0.03% BSA was used to reveal antibodies fragment binding.
(§5) Since no signal could be detected on the A431 mock cells which are cells transfected with the empty vector, as compared to the cells transfected with FR-alpha, both AFRA and C4 antibodies were judged to be specific for the alpha folate receptor. […] Table I reports ELISA determination of KD values of F(ab′)₂ of C4 and AFRA antibodies fragments. The KD was determined as to be the concentration at which half of the ELISA plateau signal is obtained.
In general terms: In an ELISA, binding on a coated surface is turned into a signal by an enzyme label.

The target in assay [4] is T2, human folate receptor alpha as …. Briefly: cell ELISA on fixed A431-FR cells, F(ab')2; KD = concentration at half of plateau signal. On the procedure: as §3, §4, §5
For assay [5] the target is unchanged. Briefly: cell ELISA on fixed OVCAR3 cells, F(ab')2; KD = concentration at half of plateau signal. As for the experimental part:
as §3, §4, §5

T1 sequence (P15328 other isoform, or with tags, fused parts or gaps limits assumed): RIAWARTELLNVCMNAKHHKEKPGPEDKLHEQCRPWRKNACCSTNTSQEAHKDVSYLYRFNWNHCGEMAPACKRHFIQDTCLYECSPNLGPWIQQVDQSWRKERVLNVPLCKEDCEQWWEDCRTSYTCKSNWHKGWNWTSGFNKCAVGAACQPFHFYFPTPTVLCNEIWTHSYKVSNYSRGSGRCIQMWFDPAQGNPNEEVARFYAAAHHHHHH

B1: AFRA Fab fragment (Anti Folate Receptor Alpha human Fab, kappa light chain) (Fab, V domains shown)
VH: NVQLVESGGGLVQPGRSLRLSCTTSGFTFGDYAMIWARQAPGKGLEWVSSISSSSSYIYYADSVKGRFTISRDNAKNSLYLQMNSLRAEDTAVYYCARERYDFWSGMDVWGKGTTVTVSS
VL: EIVLTQSPASLAVSPGQRATITCRASESVSFLGINLIHWYQQKPGQPPKLLIYQASNKDTGVPARFSGSGSGTDFTLTINPVEANDTANYYCLQSKNFPPYTFGQGTKLEIKR
notes: Made in E. coli periplasm; also called AFRA monomer; Fab AFRA
The term Kd denotes the constant that tells how readily two partners part at equilibrium. With B1, in assay [1], the Kd turned out to be 43.9 nM. Further, in assay [2], the “fold lower KD than C4” value was found to be 3 fold.

B2: C4 Fab fragment (human anti-folate receptor alpha Fab, lambda light chain) (Fab, V domains shown)
VH: QVQLVESGGGLVQPGRSLRLSCTTSGFTFGDYAMIWARQAPGKGLEWVSSISSSSSYIYYADSVKGRFTISRDNAKNSLYLQMNSLRAEDTAVYYCARERYDFWSGMDVWGKGTTVTVSS
VL: QSALTQPASVSGSPGQSITISCTGTSSDVGSYNLVSWYQQHPGKAPKLMIYEGSKRPSGVSNRFSGSKSGNAASLTISGLQAEDEADYYCQSYDSSLSVVFGGGTKLTVLG
notes: It says only that C4 and AFRA share the heavy chain except for Q1N in AFRA, so C4 has Q at position 1; also called Fab C4
For B2, the Kd in assay [1] was 168 nM.

B3: C4 F(ab')2 natural dimer (other)
light: QSALTQPASVSGSPGQSITISCTGTSSDVGSYNLVSWYQQHPGKAPKLMIYEGSKRPSGVSNRFSGSKSGNAASLTISGLQAEDEADYYCQSYDSSLSVVFGGGTKLTVLGQPKAAPSVTLFPPSSEELQANKATLVCLISDFYPGAVTVAWKADSSPVKAGVETTTPSKQSNNKYAASSYLSLTPEQWKSHRGYSCQVTHEGSTVEKTVAPTECS
heavy: QVQLVESGGGLVQPGRSLRLSCTTSGFTFGDYAMIWARQAPGKGLEWVSSISSSSSYIYYADSVKGRFTISRDNAKNSLYLQMNSLRAEDTAVYYCARERYDFWSGMDVWGKGTTVTVSSASTKGPSVFPLAPSSKSTSGGTAALGCLVKDYFPEPVTVSWNSGALTSGVHTFPAVLQSSGLYSLSSVVTVPSSSLGTQTYICNVNHKPSNTKVDKKDKTSC
modifications: C-terminal hinge cysteine disulfide-bonded to the second Fab'
notes: The preparation is heavily contaminated: 29% L2H2 dimer, 43% L2H pseudo-dimer and 25% free heavy chain; For heavy chain position 1 see the note of m2; also called F(ab')2-C4
Turning to B3, the Kd in assay [3] amounted to 118 nM; in assay [4], 1.2 nM; in assay [5] it was 11 nM.

B4: AFRA F(ab')2 natural dimer (other)
light: EIVLTQSPASLAVSPGQRATITCRASESVSFLGINLIHWYQQKPGQPPKLLIYQASNKDTGVPARFSGSGSGTDFTLTINPVEANDTANYYCLQSKNFPPYTFGQGTKLEIKRTVAAPSVFIFPPSDEQLKSGTASVVCLLNNFYPREAKVQWKVDNALQSGNSQESVTEQDSKDSTYSLSSTLTLSKADYEKHKVYACEVTHQGLSSPVTKSFNRGEC
heavy: NVQLVESGGGLVQPGRSLRLSCTTSGFTFGDYAMIWARQAPGKGLEWVSSISSSSSYIYYADSVKGRFTISRDNAKNSLYLQMNSLRAEDTAVYYCARERYDFWSGMDVWGKGTTVTVSSASTKGPSVFPLAPSSKSTSGGTAALGCLVKDYFPEPVTVSWNSGALTSGVHTFPAVLQSSGLYSLSSVVTVPSSSLGTQTYICNVNHKPSNTKVDKKDKTSC
modifications: C-terminal hinge cysteine disulfide-bonded to the second Fab'
notes: F(ab')2 made by natural oxidation of Fab'; By SDS-PAGE the preparation is 80% L2H2 dimer, 16% L2H and 4% free heavy chain; For Q1N see the note of m1; also called F(ab')2-AFRA; AFRA dimer
Consider B4, for which the Kd in assay [3] is 57 nM; in assay [4] it was 2.5 nM; in assay [5], 26 nM.
